± gives the uncertainty stated by the source.
B1: E3 ubiquitin-protein ligase TRIM36, residues 208 to 252; numbered along this chain, Q9NQ86 (parent)
chain: KILMCPEHETERINMYCELCRRPVCHLCKLGGNHANHRVTTMSSA

Variants of: B1
Assay: abundance fitness (aPCA) (normalised: wild type 0, dead -1); higher = more abundant; growth selection in yeast, the domain comes from the species named
Details: Homo sapiens
Work on N14H yielded an abundance fitness of 0.055 ± 0.11.
Work on N14G yielded an abundance fitness of -0.152 ± 0.076.
Work on N14E yielded an abundance fitness of 0.048 ± 0.095.
Variant N14Q has an abundance fitness of 0.018 ± 0.06.
With N14F the abundance fitness was 0.08 ± 0.1.
N14M showed an abundance fitness of 0.073 ± 0.1.
In the case of N14C, the abundance fitness is reported as 0.106 ± 0.1.
For N14Y, the abundance fitness was -0.065 ± 0.13.
N14L gave an abundance fitness of 0.036 ± 0.083.
Work on N14P yielded an abundance fitness of -0.195 ± 0.12.
With N14K the abundance fitness was 0.036 ± 0.068.
Work on N14V yielded an abundance fitness of 0.034 ± 0.16.
C5F gave an abundance fitness of -1.08 ± 0.16.
For C5H, the abundance fitness was -0.873 ± 0.097.
In the case of C5I, the abundance fitness is reported as -1.14 ± 0.11.
C5Y gave an abundance fitness of -1 ± 0.1.
For C5V, the abundance fitness was -0.907 ± 0.077.
C5S showed an abundance fitness of -0.765 ± 0.053.
C5T gave an abundance fitness of -0.703 ± 0.062.
Work on C5R yielded an abundance fitness of -0.976 ± 0.062.
With C5W the abundance fitness was -1.41 ± 0.15.
Work on C5K yielded an abundance fitness of -0.688 ± 0.074.
With C5Q the abundance fitness was -0.996 ± 0.082.
Work on C5L yielded an abundance fitness of -0.929 ± 0.064.
With C5M the abundance fitness was -1.02 ± 0.12.
Variant C5P has an abundance fitness of -1.06 ± 0.076.
For C5G, the abundance fitness was -0.744 ± 0.052.
C5N gave an abundance fitness of -0.84 ± 0.088.
In the case of P23M, the abundance fitness is reported as -0.189 ± 0.092.
For P23T, the abundance fitness was 0.019 ± 0.08.
For P23N, the abundance fitness was -0.032 ± 0.077.
With P23V the abundance fitness was -0.081 ± 0.063.
In the case of P23E, the abundance fitness is reported as 0.037 ± 0.063.
In the case of P23D, the abundance fitness is reported as 0.037 ± 0.076.
P23Y showed an abundance fitness of -0.069 ± 0.098.
P23C gave an abundance fitness of -0.2 ± 0.092.
With P23G the abundance fitness was 0.006 ± 0.055.
P23S gave an abundance fitness of -0.058 ± 0.065.
With P23K the abundance fitness was -0.146 ± 0.059.
With P23R the abundance fitness was -0.148 ± 0.05.
P23A showed an abundance fitness of -0.064 ± 0.058.
P23I gave an abundance fitness of -0.373 ± 0.066.
In the case of P23Q, the abundance fitness is reported as -0.1 ± 0.071.
P23H showed an abundance fitness of -0.113 ± 0.067.
With H26N the abundance fitness was -0.215 ± 0.078.
With H26F the abundance fitness was -0.307 ± 0.24.
For H26G, the abundance fitness was 0.049 ± 0.058.
H26Q gave an abundance fitness of 0.045 ± 0.063.
With H26L the abundance fitness was -0.161 ± 0.055.
H26P gave an abundance fitness of 0.021 ± 0.091.
H26Y showed an abundance fitness of 0.343 ± 0.12.
H26W showed an abundance fitness of -0.324 ± 0.08.
For H26M, the abundance fitness was -0.237 ± 0.056.
Work on H26R yielded an abundance fitness of -0.05 ± 0.055.
For H26V, the abundance fitness was -0.016 ± 0.061.
Variant H26T has an abundance fitness of -0.226 ± 0.068.
H26E showed an abundance fitness of -0.022 ± 0.064.
Work on H26K yielded an abundance fitness of -0.384 ± 0.077.
H26D gave an abundance fitness of 0.04 ± 0.085.
Work on H26S yielded an abundance fitness of 0.004 ± 0.062.
H26C gave an abundance fitness of 0.01 ± 0.065.
C25T gave an abundance fitness of -0.612 ± 0.062.
C25M showed an abundance fitness of -0.618 ± 0.1.
C25W showed an abundance fitness of -1.1 ± 0.091.
With C25Q the abundance fitness was -0.532 ± 0.069.
Work on C25R yielded an abundance fitness of -0.729 ± 0.054.
C25A showed an abundance fitness of -0.603 ± 0.05.
With C25S the abundance fitness was -0.665 ± 0.054.
Variant C25Y has an abundance fitness of -0.805 ± 0.075.
C25P showed an abundance fitness of -0.723 ± 0.07.
C25E gave an abundance fitness of -0.48 ± 0.072.
With C25K the abundance fitness was -0.572 ± 0.087.
With C25H the abundance fitness was -0.603 ± 0.12.
With C25I the abundance fitness was -0.814 ± 0.1.
In the case of C25L, the abundance fitness is reported as -0.81 ± 0.059.
C25G gave an abundance fitness of -0.556 ± 0.053.
C25V showed an abundance fitness of -0.854 ± 0.059.
With C25D the abundance fitness was -0.553 ± 0.11.
With C25F the abundance fitness was -0.752 ± 0.23.
C25N gave an abundance fitness of -0.5 ± 0.21.
C20W showed an abundance fitness of -1.16 ± 0.082.
Work on C20A yielded an abundance fitness of -0.652 ± 0.059.
C20G showed an abundance fitness of -0.595 ± 0.054.
Variant C20F has an abundance fitness of -1.37 ± 0.14.
Work on C20M yielded an abundance fitness of -0.534 ± 0.084.
Variant C20E has an abundance fitness of -0.491 ± 0.061.
For C20L, the abundance fitness was -0.591 ± 0.066.
C20Q gave an abundance fitness of -0.504 ± 0.055.
For C20D, the abundance fitness was -0.393 ± 0.093.
Variant C20H has an abundance fitness of -0.665 ± 0.13.
With C20S the abundance fitness was -0.679 ± 0.064.
For C20K, the abundance fitness was -0.547 ± 0.079.
For C20R, the abundance fitness was -0.561 ± 0.05.
Work on C20I yielded an abundance fitness of -1.01 ± 0.11.
C20P gave an abundance fitness of -0.819 ± 0.059.
For C20V, the abundance fitness was -0.789 ± 0.059.
Variant C17Q has an abundance fitness of -0.954 ± 0.43.
Work on C17G yielded an abundance fitness of -0.733 ± 0.088.
C17P showed an abundance fitness of -0.705 ± 0.12.
Work on C17H yielded an abundance fitness of -0.656 ± 0.47.
Work on C17S yielded an abundance fitness of -0.897 ± 0.19.
In the case of C17R, the abundance fitness is reported as -0.909 ± 0.086.
Work on C17A yielded an abundance fitness of -1.01 ± 0.17.
Work on C17L yielded an abundance fitness of -1.04 ± 0.45.
Variant C17F has an abundance fitness of -1.21 ± 0.15.
Work on C17E yielded an abundance fitness of -0.763 ± 0.079.
C17V showed an abundance fitness of -0.813 ± 0.087.
For C17W, the abundance fitness was -1.16 ± 0.15.
C17Y gave an abundance fitness of -0.862 ± 0.39.
C17T gave an abundance fitness of -0.796 ± 0.15.
For T10D, the abundance fitness was -0.132 ± 0.087.
In the case of T10K, the abundance fitness is reported as 0.041 ± 0.057.
Work on T10L yielded an abundance fitness of -0.142 ± 0.058.
For T10Q, the abundance fitness was 0.021 ± 0.067.
Variant T10G has an abundance fitness of -0.071 ± 0.045.
Work on T10M yielded an abundance fitness of -0.038 ± 0.069.
For T10V, the abundance fitness was -0.161 ± 0.059.
T10S gave an abundance fitness of -0.078 ± 0.057.
T10C showed an abundance fitness of -0.06 ± 0.088.
With T10E the abundance fitness was -0.049 ± 0.064.
For T10R, the abundance fitness was -0.039 ± 0.049.
Variant T10A has an abundance fitness of -0.12 ± 0.053.
T10N showed an abundance fitness of -0.282 ± 0.17.
Variant T10W has an abundance fitness of -0.273 ± 0.06.
Variant T10F has an abundance fitness of -0.337 ± 0.11.
For T10Y, the abundance fitness was -0.171 ± 0.082.
With T10P the abundance fitness was -0.015 ± 0.082.
Variant T10H has an abundance fitness of -0.039 ± 0.07.
Work on M15C yielded an abundance fitness of 0.12 ± 0.18.
For M15E, the abundance fitness was -0.024 ± 0.13.
M15A gave an abundance fitness of -0.166 ± 0.18.
Work on M15Q yielded an abundance fitness of -0.285 ± 0.23.
M15V showed an abundance fitness of -0.309 ± 0.27.
M15R gave an abundance fitness of -0.329 ± 0.35.
For M15T, the abundance fitness was -0.08 ± 0.1.
E9D showed an abundance fitness of 0.008 ± 0.075.
With E9R the abundance fitness was -0.072 ± 0.044.
In the case of E9K, the abundance fitness is reported as 0.079 ± 0.067.
E9H gave an abundance fitness of -0.069 ± 0.099.
With E9S the abundance fitness was 0.07 ± 0.057.
With E9V the abundance fitness was -0.051 ± 0.052.
With E9M the abundance fitness was -0.099 ± 0.065.
Variant E9L has an abundance fitness of -0.04 ± 0.052.
Variant E9T has an abundance fitness of 0.053 ± 0.053.
E9Y gave an abundance fitness of -0.076 ± 0.12.
In the case of E9C, the abundance fitness is reported as -0.074 ± 0.061.
E9G gave an abundance fitness of 0.008 ± 0.045.
Work on E9A yielded an abundance fitness of -0.043 ± 0.053.
E9I gave an abundance fitness of -0.042 ± 0.069.
E9P gave an abundance fitness of 0.075 ± 0.061.
For E9N, the abundance fitness was -0.052 ± 0.088.
E9Q gave an abundance fitness of -0.062 ± 0.073.
For Y16P, the abundance fitness was -0.111 ± 0.37.
Work on Y16W yielded an abundance fitness of -0.04 ± 0.1.
For Y16T, the abundance fitness was 0.284 ± 0.15.
Y16S gave an abundance fitness of -0.135 ± 0.074.
With Y16D the abundance fitness was -0.105 ± 0.11.
Variant Y16R has an abundance fitness of -0.069 ± 0.065.
Variant Y16H has an abundance fitness of 0.082 ± 0.14.
For Y16V, the abundance fitness was -0.437 ± 0.28.
With Y16M the abundance fitness was 0.11 ± 0.25.
In the case of Y16F, the abundance fitness is reported as -0.046 ± 0.084.
With Y16Q the abundance fitness was -0.306 ± 0.29.
In the case of Y16K, the abundance fitness is reported as -0.16 ± 0.1.
Work on Y16A yielded an abundance fitness of -0.264 ± 0.11.
Variant Y16L has an abundance fitness of -0.053 ± 0.076.
Work on Y16G yielded an abundance fitness of -0.478 ± 0.11.

From the Human Domainome abundance scans (Beltran et al. 2025)
